Results as given in the supplement of paper PMC10126150.
± gives the standard deviation of the averaged measurements.

tested on: ATP; test: switch fluorescence ratio, 500 uM ATP over buffer (Cy3 cluster intensity, sum of 5 cycles each) (fold (ratio)); higher = stronger signal-on switching upon ATP binding; sequences stand for … in TCGTCGGCAGCGTCAGATGTGTATAAGAGACAGTTTTTTTTTTTTTTTTTTTTTTTTT…TC; details: aptamer strand: ATP DNA aptamer (quencher-CACCTGGGGGAGTATTGCGGAGGAAGG + anchor), 100 nM annealed; ATP concentration: 500 uM
Procedure, shortened: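 For every switch-domain sequence, the fluorescence ratio is the mean of per-cluster values, each being summed target-cycle Cy3 intensity over summed buffer-cycle Cy3 intensity. Clusters outside 100-1000 RFU were excluded. On a modified Illumina MiSeq flow-cell, the Cy3-labelled switching-strand clusters were annealed to 100 nM quencher-labelled ATP aptamer, imaged in selection buffer and then after 15 min with 500 uM ATP at 22 °C. Five such cycles were run, with NaOH stripping and re-annealing between them.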
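Further: ATP exposure 15 min at 22 °C before imaging.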

Sequence | switch fluorescence ratio
AAAAAAAAGA | 0.996 ± 0.048
AAAAAAAAGG | 1 ± 0.05
AAAAAAAGCG | 0.979 ± 0.058
AAAAAACGTG | 1.06 ± 0.091
AAAAAAGAAT | 0.9938 ± 0.0096
AAAAAAGGAC | 1.03 ± 0.044
AAAAAATCGG | 1 ± 0.019
AAAAAATGGG | 1.01 ± 0.012
AAAAACACCG | 1.09 ± 0.078
AAAAACGGCT | 0.99 ± 0.017
AAAAACGTCA | 1.003 ± 0.0045
AAAAACTGAA | 1.01 ± 0.02
AAAAAGAAAG | 1.02 ± 0.022
AAAAAGATTT | 1.05 ± 0.081
AAAAAGCTTT | 1.026 ± 0.0047
AAAAAGGAGG | 1 ± 0.015
AAAAAGGCTA | 1.03 ± 0.017
AAAAAGTCGC | 0.961 ± 0.022
AAAAAGTGGT | 0.9827 ± 0.0041
AAAAATACGG | 0.965 ± 0.057
AAAAATATGA | 1.01 ± 0.053
AAAAATGAGA | 0.998 ± 0.043
AAAAATGTTG | 1 ± 0.053
AAAAATTCCG | 1.045 ± 0.0036
AAAACACAGA | 1.15 ± 0.14

Sequence | switch fluorescence ratio
AAAACACGTA | 1.13 ± 0.035
AAAACGCGGT | 1.2 ± 0.042
AAAACGGAGA | 1.02 ± 0.014
AAAAGAGGTG | 1.08 ± 0.034
AAAAGATAAA | 0.977 ± 0.023
AAAAGCAGGG | 1 ± 0.014
AAAAGCGGAT | 1.025 ± 0.0063
AAAAGCGTTG | 0.999 ± 0.013
AAAAGGAGTT | 0.998 ± 0.016
AAAAGGCCGT | 1.02 ± 0.0058
AAAAGGCGGT | 1.01 ± 0.012
AAAAGGGATT | 0.98 ± 0.012
AAAAGGGGCA | 1.04 ± 0.051
AAAAGGGTA | 0.957 ± 0.048
AAAAGGTCAG | 1.01 ± 0.021
AAAAGTAACC | 0.993 ± 0.026
AAAAGTAGGA | 0.984 ± 0.065
AAAAGTATAA | 1.03 ± 0.036
AAAAGTTGGT | 1.02 ± 0.083
AAAAGTTTGT | 1 ± 0.032
AAAATAAGGC | 0.981 ± 0.03
AAAATAATTC | 1 ± 0.059
AAAATATAGA | 0.9798 ± 0.0025
AAAATCAGCC | 1.07 ± 0.053
AAAATCAGGC | 0.944 ± 0.085

Sequence | switch fluorescence ratio
AAAATCGGGA | 1 ± 0.035
AAAATCTGCG | 1.03 ± 0.041
AAAATCTTGT | 1.04 ± 0.0066
AAAATGCGGT | 0.996 ± 0.015
AAAATGCGTT | 1.02 ± 0.029
AAAATGGCCA | 1.02 ± 0.083
AAAATGGGCC | 0.963 ± 0.033
AAAATGGGGC | 1 ± 0.037
AAAATGTCGG | 0.998 ± 0.012
AAAATGTTTT | 1.02 ± 0.031
AAAATTATC | 0.997 ± 0.019
AAAATTCGTA | 1.028 ± 0.0022
AAAATTTAAC | 1.01 ± 0.023
AAAATTTCAA | 1.011 ± 0.0042
AAAATTTGTT | 1 ± 0.015
AAAATTTTGG | 1 ± 0.043
AAACACAGGG | 1.07 ± 0.063
AAACAGGGGG | 0.982 ± 0.028
AAACAGTAGA | 1.07 ± 0.042
AAACATTTTG | 1.02 ± 0.036
AAACCGACAT | 1.27 ± 0.03
AAACCGGAAC | 2.26 ± 0.1
AAACCGGGAC | 1.55 ± 0.15
AAACCTATGG | 0.986 ± 0.055
AAACGAAAAA | 1.04 ± 0.044

Sequence | switch fluorescence ratio
AAACGAATGG | 0.981 ± 0.022
AAACGCTGGT | 1.01 ± 0.0087
AAACGGAGGG | 0.996 ± 0.038
AAACGGCATC | 1.073 ± 0.0074
AAACGGGCGG | 0.996 ± 0.045
AAACGGGGAG | 0.991 ± 0.021
AAACGGGGAT | 0.992 ± 0.011
AAACGTAATA | 1.31 ± 0.014
AAACGTCCT | 1.07 ± 0.012
AAACTAAAAA | 1 ± 0.033
AAACTAAGTT | 1.041 ± 0.008
AAACTGGGGC | 1.12 ± 0.022
AAACTGGGGT | 0.999 ± 0.0016
AAACTTAAGA | 0.996 ± 0.049
AAACTTAGC | 1.03 ± 0.065
AAAGAAACTC | 1.47 ± 0.7
AAAGAAAGGG | 1 ± 0.029
AAAGAAATTC | 1.02 ± 0.068
AAAGAATGGT | 0.991 ± 0.054
AAAGAATTCG | 0.974 ± 0.037
AAAGACATCT | 1.02 ± 0.095
AAAGACGACA | 1.27 ± 0.29
AAAGAGGAGG | 0.984 ± 0.036
AAAGAGGCTT | 0.983 ± 0.039
AAAGAGGTTC | 1.04 ± 0.068
